This is an account of results in the supplement of paper PMC10567573.

This series in a line: protein stability index of a GFP-peptide fusion (GPS, HEK-293T) (PSI 1-6); higher = more stable.
[1] abbreviates: treatment: DMSO, c terminus: a fixed tail appended.
Setting [2] is: treatment: MLN4924 1 uM, 8 h, c terminus: a fixed tail appended.

± gives the standard deviation.
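Also: 24-mer peptide tiles fused after GFP, lentivirally expressed, FACS-sorted into six equal bins by GFP/DsRed ratio, decoded by Illumina sequencing, PSI is the read-weighted mean bin number.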

The sequence GKPLIPPMNRRNILVMKHNYSQDA [NETO1] registered a protein stability index under setting [1] of 2.98 ± 0.4 and a protein stability index under setting [2] of 3.31 ± 0.28.

Consider GKSPSITFEYTLLQPPHESRPQPI [ADAMTSL2], for which the protein stability index turned out to be 2.83 ± 0.4 under setting [1] and 2.83 ± 0.29 under setting [2].

Consider GLAGLLPASYTAPIMSGQGLAGFF [SLC29A1], for which the protein stability index was determined as 2.06 ± 0.25 under setting [1] and 2.1 ± 0.086 under setting [2].

Regarding GLDFHRFYFENLWSRNSKPVHTTI [CAMK2A], the protein stability index by setting is: under setting [1], 2.28 ± 0.58; under setting [2], 2.11 ± 0.32.

GLLAGVGYFAFMLFRKRLGSMILA [GDAP1]: the protein stability index turned out to be 1.99 ± 0.082 under setting [1] and 2.37 ± 0.41 under setting [2].

The sequence GLLLGSHGLLGSPVRAAASSPVTT [CDC25B] showed a protein stability index under setting [1] of 2.74 ± 0.28 and a protein stability index under setting [2] of 3.26 ± 0.31.

In turn, GLQPVVFVLFLFAYLVTVRGNLSI [OR3A1] came in with a protein stability index under setting [1] of 2.6 ± 0.47 and a protein stability index under setting [2] of 2.19 ± 0.21.

Regarding GLQSAQPTEGQGSLLTNWPSVPPT [MYBL2], the protein stability index runs as follows: under setting [1], 4.02 ± 0.28; under setting [2], 4.14 ± 0.092.

With GMESYQEVTVQRNCCLTLCNFSIP [ZER1], the protein stability index stood at 2.41 ± 0.52 under setting [1] and 2.1 ± 0.42 under setting [2].

On to GMPSSLAHRIAAQTLLGTAKMLLH [PYCR3], for which the protein stability index is, setting by setting: under setting [1], 2.4 ± 1.2; under setting [2], 2.29 ± 0.3.

Regarding GNSTQATVRDAVVGRPSMDKKAQ [ATL3], the protein stability index came to 5.28 ± 0.13 (treatment: DMSO, c terminus: native) and 5.21 ± 0.23 (treatment: MLN4924 1 uM, 8 h, c terminus: native).

On to GQIIKDIDSGSPAEEAGLKNNDLV [PDZK1], for which the protein stability index runs as follows: under setting [1], 5.31 ± 0.33; under setting [2], 5.27 ± 0.079.

For the sequence GRAGAVGTPGERGPPGPPGPPGPP [EMID1], the protein stability index under setting [1] was 4.6 ± 0.44 and the protein stability index under setting [2] is 4.68 ± 0.22.

GRLELKPLLLRLPRICQRNLMSLL [FANCE]: the protein stability index under setting [1] was determined as 2.63 ± 0.33 and the protein stability index under setting [2] was 2.7 ± 0.23.

As for GRLILSTIRLRPRQVLCEKCKSTL [PWWP2B], the protein stability index runs as follows: under setting [1], 2.2 ± 0.4; under setting [2], 2.56 ± 0.55.

In turn, GRNHTPFLGHHSFSVRPGTEATIS [SCNN1D] had a protein stability index under setting [1] of 3.65 ± 0.14 and a protein stability index under setting [2] of 3.78 ± 0.25.

In the case of GRSSMGTGLSGGKRPSQEEDTQSI [CRY1], the protein stability index by setting is: under setting [1], 5.51 ± 0.17; under setting [2], 5.37 ± 0.29.

For the sequence GSKLEKGHLRGPEIRDWRGPQLEG [ZSWIM9], the protein stability index by setting is: under setting [1], 3.87 ± 0.35; under setting [2], 3.85 ± 0.2.

GSKSQRYSGAYGASVSDEELKRRV [CHCHD3]: the protein stability index is, setting by setting: under setting [1], 4.99 ± 0.29; under setting [2], 4.86 ± 0.18.

Take GSLHYTTLRTLTGQDTMLKAMFSG [KCTD13]: the protein stability index turned out to be 2.46 ± 0.26 under setting [1] and 2.61 ± 0.21 under setting [2].

As for GSSASTSPAPLDTCPSSSTASSIS [DYRK1B], the protein stability index runs as follows: under setting [1], 5.22 ± 0.12; under setting [2], 5.3 ± 0.078.

For the sequence GSSDKVYAHQMVRTDSREQKLDAF [MLH1], the protein stability index runs as follows: under setting [1], 4.12 ± 0.13; under setting [2], 4.13 ± 0.27.

As for GTAHIPPTMHLESPALQVMGPAQE [ZNF449], the protein stability index came out at 4.78 ± 0.25 under setting [1] and 4.73 ± 0.17 under setting [2].

Turning to GTDEEEEEFIEEEDQEEEESTEGK [TRIM63], the protein stability index was 5.71 ± 0.17 under setting [1] and 5.56 ± 0.24 under setting [2].

Regarding GTKCHGCDFKIDAGDRFLEALGFS [PDLIM7], the protein stability index runs as follows: under setting [1], 2.63 ± 0.22; under setting [2], 2.42 ± 0.36.

In the case of GTTLVVGLLAGVGYFAFMLFRKRL [GDAP1], the protein stability index under setting [1] turned out to be 2.41 ± 0.49 and the protein stability index under setting [2] is 2.63 ± 0.22.

As to GVGKSALTVQFVQGIFVEKYDPTI [RAP1B], the protein stability index came to 2.25 ± 0.28 under setting [1] and 2.07 ± 0.25 under setting [2].

With GVMLYTLLVGRYPFHDSDPSALFS [TRIB1], the protein stability index amounted to 2.52 ± 0.37 under setting [1] and 2.7 ± 0.46 under setting [2].

For the sequence GVVVCEADTGRIHRFVEKPQVFVS [GMPPB], the protein stability index is, setting by setting: under setting [1], 2.25 ± 0.19; under setting [2], 2.28 ± 0.3.

For the sequence GVYMTDITPQGVAMRAGVLADDHL [PDZK1], the protein stability index came to 3.54 ± 0.46 under setting [1] and 3.34 ± 0.21 under setting [2].

As for GWLPSHEGHLDDGGYTPDLKMSYS [RBMY1A1], the protein stability index reads like this: under setting [1], 3.62 ± 0.15; under setting [2], 3.5 ± 0.36.

HAPGVPKILVGNRLHLAFKRQVPT [RAB40B]: the protein stability index was 2.49 ± 0.5 under setting [1] and 2.6 ± 0.35 under setting [2].

For HCLHSAGHSQPDGAYSSASSFSRP [DLX1], the protein stability index under setting [1] was found to be 3.53 ± 0.27 and the protein stability index under setting [2] is 3.61 ± 0.17.

Take HFPHLLSPQIQRSAHRALYRRHVL [TMEM175]: the protein stability index is, setting by setting: under setting [1], 2.69 ± 0.26; under setting [2], 2.85 ± 0.15.

HGSGSHPGPASGPGPDTGPDSELS [SPAG8] showed a protein stability index under setting [1] of 5.41 ± 0.25 and a protein stability index under setting [2] of 5.37 ± 0.36.

HHPENGEETVTMLEDVERELDGPK [ZNF396] showed a protein stability index under setting [1] of 5.51 ± 0.13 and a protein stability index under setting [2] of 5.49 ± 0.15.

HIGNSTQATVRDAVVGRPSMDKKA [ATL3]: the protein stability index is, setting by setting: under setting [1], 3.97 ± 0.21; under setting [2], 4.49 ± 0.6.

HKARTRPKARKQGVSPADMYRWKL [ADAMTSL2]: the protein stability index was found to be 3.32 ± 0.25 under setting [1] and 3.31 ± 0.42 under setting [2].

As for HLRATEKMKTRELHRESSNFDSIY [HDAC6], the protein stability index is, setting by setting: under setting [1], 3.18 ± 0.43; under setting [2], 3.46 ± 0.2.

In the case of HLVQHQRIHSGEKPYECNECGKAF [ZNF232], the protein stability index came out at 3.65 ± 0.21 under setting [1] and 3.8 ± 0.098 under setting [2].

HNGDMEKILLDAQHESGQSSSRGS [BNIP3L] yielded a protein stability index under setting [1] of 5.18 ± 0.17 and a protein stability index under setting [2] of 5.32 ± 0.3.

Regarding HPFFDTAEPDMDDPAYIAVLVLIF [INTS4], the protein stability index is, setting by setting: under setting [1], 2.61 ± 0.57; under setting [2], 2.66 ± 0.62.

In the case of HPFYHCLVAEVPKEHWTPEGHSIV [SAT1], the protein stability index runs as follows: under setting [1], 2.76 ± 0.33; under setting [2], 2.54 ± 0.25.

For HPTPFLAFLRRVKTCNPPDAGPMV [PTPRD], the protein stability index under setting [1] was 2.37 ± 0.12 and the protein stability index under setting [2] is 2.26 ± 0.18.

Take HQADLEVANRHGHTCLMISCYKGH [FEM1A]: the protein stability index runs as follows: under setting [1], 2.73 ± 0.33; under setting [2], 2.69 ± 0.45.

Turning to HQMGVVHRDLKPENLLLASKLKGA [CAMK2A], the protein stability index amounted to 3.73 ± 0.21 under setting [1] and 3.82 ± 0.12 under setting [2].

As to HQPKGLEEENAQLRGALQQGEAFQ [PBXIP1], the protein stability index amounted to 5.07 ± 0.24 under setting [1] and 5.05 ± 0.12 under setting [2].

With HQVTVNESLLAPLNVELDPEIQKV [KRT71], the protein stability index under setting [1] is 4.73 ± 0.2 and the protein stability index under setting [2] is 4.45 ± 0.15.

Regarding HRRIHTGEKPYECQDCGRAFNQNS [ZNF8], the protein stability index worked out at 3.75 ± 0.53 under setting [1] and 4.1 ± 0.27 under setting [2].

For the sequence HSDPEESFARDLPDFPSINMDPAG [RETREG3], the protein stability index is, setting by setting: under setting [1], 5.19 ± 0.25; under setting [2], 5.22 ± 0.16.

Regarding HSVLVDDDGIKVVKVTFNKQDSLV [TMEM106C], the protein stability index was 3.09 ± 0.27 under setting [1] and 3.18 ± 0.36 under setting [2].

For HTDMTNKQNKTPLDKSTTGVSEIL [FEM1B], the protein stability index runs as follows: under setting [1], 4.85 ± 0.49; under setting [2], 5.05 ± 0.25.

In the case of HTEASAQRSHMGKLKEPQPQDHKP, the protein stability index by setting is: under setting [1], 5.24 ± 0.71; under setting [2], 5.24 ± 0.33.

In the case of HTGLKPYECGVCAKKFMWRDSFMR [ZBTB22], the protein stability index by setting is: under setting [1], 2.65 ± 0.52; under setting [2], 2.44 ± 0.6.

For HVAGEQMLEDGPHNANRGQRLLAF [CCDC70], the protein stability index was found to be 4.07 ± 0.25 under setting [1] and 4.04 ± 0.24 under setting [2].

As to HVEVARLLLENGAGINTHSNEFKE [ANKRD17], the protein stability index reads like this: under setting [1], 3.69 ± 0.39; under setting [2], 3.39 ± 0.22.

For the sequence HVKEQLPCAGLNCQALDANLDANL [TLE6], the protein stability index by setting is: under setting [1], 4.42 ± 0.19; under setting [2], 4.64 ± 0.24.

For IAAAVYIMDTVGNIWVCYASYVVF [SLC19A2], the protein stability index was 2.89 ± 0.13 under setting [1] and 2.87 ± 0.27 under setting [2].

Regarding IASEWFLIANRSYKVSAASSFFFS [SLC22A15], the protein stability index by setting is: under setting [1], 3.03 ± 0.19; under setting [2], 2.94 ± 0.42.

For the sequence IAVAWIYGTKKFMQELTEMLGFRP [SLC6A17], the protein stability index by setting is: under setting [1], 2.62 ± 0.78; under setting [2], 2.1 ± 0.61.

ICKSDAPTGDVLLDEALKHVKETQ [GOLPH3]: the protein stability index by setting is: under setting [1], 4.64 ± 0.3; under setting [2], 4.72 ± 0.16.

With IEREHLIQLRRWQETRGELQCRSP [TBC1D10A], the protein stability index reads like this: under setting [1], 3.88 ± 0.2; under setting [2], 3.82 ± 0.24.

In the case of IFPRLSFKDKSTYIESSTKVYDDM [CLPTM1], the protein stability index is, setting by setting: under setting [1], 3.03 ± 0.23; under setting [2], 3.15 ± 0.25.

As to IFSQSSALILHQRIHSGKKPYACD [ZNF396], the protein stability index was found to be 2.32 ± 0.097 under setting [1] and 2.53 ± 0.24 under setting [2].

In turn, IGDVHLAPFTDEQLYMEQFTKANF [CARM1] displayed a protein stability index under setting [1] of 3 ± 0.2 and a protein stability index under setting [2] of 3.03 ± 0.36.

IGMSAAGMGLTGTMGMGMPNIAMT [CLINT1] yielded a protein stability index under setting [1] of 2.62 ± 0.079 and a protein stability index under setting [2] of 2.56 ± 0.13.

For the sequence IGSSSEKEIDDVIDEIISLESSYN [TFE3], the protein stability index worked out at 4.37 ± 0.25 under setting [1] and 4.4 ± 0.22 under setting [2].

Take IHGENIICEATQIIDYLEQTFLDE [GDAP1]: the protein stability index under setting [1] worked out at 2.82 ± 0.22 and the protein stability index under setting [2] was 3.12 ± 0.21.

Regarding IHPKSIDLDNYFTARRLLSQVRAL [NFE2L1], the protein stability index came to 2.25 ± 0.32 under setting [1] and 2.54 ± 0.18 under setting [2].

IHQESGKAPSTDDATWAAVAACTK [C10orf62]: the protein stability index by setting is: under setting [1], 4.56 ± 0.18; under setting [2], 4.72 ± 0.32.

For the sequence IIELLEKDGMAFQEALDPGPFDQG [ELF3], the protein stability index is, setting by setting: under setting [1], 3.58 ± 0.39; under setting [2], 3.44 ± 0.32.

As for IIIRSEVPGIFCAGADLKERAKMS [AUH], the protein stability index reads like this: under setting [1], 2.36 ± 0.43; under setting [2], 1.95 ± 0.21.
